Reference: article PMC8212047

How the values were obtained:
Assay in all cases: SPR
CB6 (human) = target: CB6 (human)
RGN10987 (human) = target: RGN10987 (human)
RGN10933 (human) = target: RGN10933 (human)

Measured: binding relative to WT RBD

Chain of RGN10933 (human) (heavy, as listed by the source, chain 1 of 2): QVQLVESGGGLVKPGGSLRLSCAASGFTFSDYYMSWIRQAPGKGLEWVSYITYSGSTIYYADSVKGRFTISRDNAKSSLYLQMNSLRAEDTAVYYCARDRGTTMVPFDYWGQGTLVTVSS
Chain of RGN10933 (human) (light, as listed by the source, chain 2 of 2): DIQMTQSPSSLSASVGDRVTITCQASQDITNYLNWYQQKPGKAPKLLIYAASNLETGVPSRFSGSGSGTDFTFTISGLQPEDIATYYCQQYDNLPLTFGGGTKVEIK
Chain of RGN10987 (human) (heavy, as listed by the source, chain 1 of 2): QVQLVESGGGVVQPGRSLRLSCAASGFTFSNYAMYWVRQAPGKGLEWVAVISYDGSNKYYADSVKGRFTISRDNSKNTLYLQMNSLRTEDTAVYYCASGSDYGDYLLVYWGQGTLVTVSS
Chain of RGN10987 (human) (light, as listed by the source, chain 2 of 2): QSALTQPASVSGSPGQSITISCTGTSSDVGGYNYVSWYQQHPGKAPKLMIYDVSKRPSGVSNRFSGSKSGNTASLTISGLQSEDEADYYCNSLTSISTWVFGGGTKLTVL

RBD A475V-FC fusion protein (from UniProt P0DTC2)
> 50%: all assays above

RBD Y505W-FC fusion protein (from UniProt P0DTC2)
> 50%: all assays above

RBD T345I-FC fusion protein (from UniProt P0DTC2)
> 50%: all assays above
